This assay concerns the target TRα1PV (mutated thyroid hormone receptor α1 carrying the PV mutation) (UniProt P10827). As to the kind of experiment: co-IP.

Consider “nuclear receptor corepressor, NCoR1 (from UniProt Q60974 1-2453) (natural protein)”, for which the fold NCoR1 co-precipitated relative to TRβ1PV (before induction) came out at 1.6 fold and the fold NCoR1 co-precipitated relative to TRβ1PV (day 6 after induction) was found to be 2 fold.

The record behind these values is publication PMC3457783.
